According to patent US11325966:

Legend:
Assay in all cases: cell-based or functional assay
[1] = target: HIV-1 Env of pseudovirus 1394C9G1 (Rev-) (HIV-1)
[2] = target: HIV-1 envelope (Env) of pseudovirus Q842.d12 (HIV-1)
[3] = target: HIV-1 envelope (Env) of pseudovirus 6545.v4.c1 (HIV-1)
[4] = target: HIV-1 envelope (Env) of pseudovirus X1193_c1 (HIV-1)
[5] = target: HIV-1 envelope (Env) of pseudovirus A07412M1.vrc12 (HIV-1)
[6] = target: HIV-1 envelope (Env) of pseudovirus P0402_c2_11 (HIV-1)
[7] = target: HIV-1 envelope (Env) of pseudovirus THRO4156.18 (HIV-1)
[8] = target: HIV-1 envelope (Env) of pseudovirus ZM109F.PB4 (HIV-1)
[9] = target: HIV-1 envelope (Env) of pseudovirus YU2_WT (HIV-1) (UniProt P35961)
[10] = target: HIV-1 envelope (Env) of pseudovirus YU2_N280Y (HIV-1) (UniProt P35961)
[11] = target: HIV-1 envelope (Env) of pseudovirus 6540.v4.c1 (HIV-1)
[12] = target: HIV-1 envelope (Env) of pseudovirus BF1266.431a (HIV-1)
[13] = target: HIV-1 envelope (Env) of pseudovirus 6535.3 (HIV-1)
[14] = target: HIV-1 envelope (Env) of pseudovirus T250-4 (HIV-1)
[15] = target: HIV-1 envelope (Env) of pseudovirus 231965.c01 (HIV-1)
[16] = target: HIV-1 envelope (Env) of pseudovirus C1080.c03 (HIV-1)
[17] = target: HIV-1 envelope (Env) of pseudovirus Du172.17 (HIV-1)
[18] = target: HIV-1 envelope (Env) of pseudovirus 6952.v1.c20 (HIV-1)
[19] = target: HIV-1 envelope (Env) of pseudovirus X1632_S2_B10 (HIV-1)
[20] = target: HIV-1 envelope (Env) of pseudovirus ZM214M.PL15 (HIV-1)
[21] = target: HIV-1 envelope (Env) of pseudovirus HIV-001428-2.42 (HIV-1)
[22] = target: HIV-1 envelope (Env) of pseudovirus 0815.v3.c3 (HIV-1)
[23] = target: HIV-1 envelope (Env) of pseudovirus X2131_C1_B5 (HIV-1)
[24] = target: HIV-1 envelope (Env) of pseudovirus C3347.c11 (HIV-1)
[25] = target: HIV-1 envelope (Env) of pseudovirus HIV-0013095-2.11 (HIV-1)
[26] = target: HIV-1 envelope (Env) of pseudovirus AC10.0.29 (HIV-1)
[27] = target: HIV-1 envelope (Env) of pseudovirus Q23.17 (HIV-1)
[28] = target: HIV-1 envelope (Env) of pseudovirus R1166.c01 (HIV-1)
[29] = target: HIV-1 envelope (Env) of pseudovirus 62357_14_D3_4589 (HIV-1)
[30] = target: HIV-1 envelope (Env) of pseudovirus 6480.v4.c25 (HIV-1)
[31] = target: HIV-1 envelope (Env) of pseudovirus 928-28 (HIV-1)
[32] = target: HIV-1 envelope (Env) of pseudovirus 6240_08_TA5_4622 (HIV-1)
[33] = target: HIV-1 envelope (Env) of pseudovirus CNE53 (HIV-1)
[34] = target: HIV-1 envelope (Env) of pseudovirus 211-9 (HIV-1)
[35] = target: HIV-1 envelope (Env) of pseudovirus P1981_C5_3 (HIV-1)
[36] = target: HIV-1 envelope (Env) of pseudovirus 3103.v3.c10 (HIV-1)
[37] = target: HIV-1 Env of pseudovirus ZM135M.PE10a (HIV-1)
JR-CSF N362A (HIV-1) = JR-CSF N362A (HIV-1) (UniProt P20871)

BG18 IgG (354BG18) (antibody)
IC50 in TZM-bl assay [1]: 0.029 µg/mL
IC80 in TZM-bl assay [1]: 0.35 µg/mL

BG1 (antibody)
IC50 in TZM-bl assay [2]: 1.4 µg/mL
IC80 in TZM-bl assay [2]: 4.3 µg/mL
IC50 in TZM-bl assay [3]: > 30 µg/mL
IC80 in TZM-bl assay [3]: > 30 µg/mL
IC50 in TZM-bl assay [4]: 0.138 µg/mL
IC80 in TZM-bl assay [4]: 0.463 µg/mL
IC50 in TZM-bl assay [5]: > 30 µg/mL
IC80 in TZM-bl assay [5]: > 30 µg/mL
IC50 in TZM-bl assay [6]: > 30 µg/mL
IC80 in TZM-bl assay [6]: > 30 µg/mL
IC50 in TZM-bl assay [7]: > 30 µg/mL
IC80 in TZM-bl assay [7]: > 30 µg/mL
IC50 in TZM-bl assay [8]: > 30 µg/mL
IC80 in TZM-bl assay [8]: > 30 µg/mL
IC50 in TZM-bl assay [9]: 15.8 µg/mL
IC80 in TZM-bl assay [9]: > 30 µg/mL
IC50 in TZM-bl assay [10]: 9 µg/mL
IC80 in TZM-bl assay [10]: 23 µg/mL
IC50 in TZM-bl assay [11]: > 30 µg/mL
IC80 in TZM-bl assay [11]: > 30 µg/mL
IC50 in TZM-bl assay [12]: > 30 µg/mL
IC80 in TZM-bl assay [12]: > 30 µg/mL
IC50 in TZM-bl assay [13]: 0.322 µg/mL
IC80 in TZM-bl assay [13]: 1.13 µg/mL
IC50 in TZM-bl assay [14]: 3.92 µg/mL
IC80 in TZM-bl assay [14]: > 30 µg/mL
IC50 in TZM-bl assay [15]: > 30 µg/mL
IC80 in TZM-bl assay [15]: > 30 µg/mL
IC50 in TZM-bl assay [16]: 0.002 µg/mL
IC80 in TZM-bl assay [16]: 0.005 µg/mL
IC50 in TZM-bl assay [17]: > 30 µg/mL
IC80 in TZM-bl assay [17]: > 30 µg/mL
IC50 in TZM-bl assay [18]: > 30 µg/mL
IC80 in TZM-bl assay [18]: > 30 µg/mL
IC50 in TZM-bl assay [19]: 0.079 µg/mL
IC80 in TZM-bl assay [19]: 0.25 µg/mL
IC50 in TZM-bl assay [20]: > 30 µg/mL
IC80 in TZM-bl assay [20]: > 30 µg/mL
IC50 in TZM-bl assay [21]: 1.09 µg/mL
IC80 in TZM-bl assay [21]: 3.12 µg/mL
IC50 in TZM-bl assay [22]: > 30 µg/mL
IC80 in TZM-bl assay [22]: > 30 µg/mL
IC50 in TZM-bl assay [23]: 0.116 µg/mL
IC80 in TZM-bl assay [23]: 0.313 µg/mL
IC50 in TZM-bl assay [24]: > 30 µg/mL
IC80 in TZM-bl assay [24]: > 30 µg/mL
IC50 in TZM-bl assay [25]: > 30 µg/mL
IC80 in TZM-bl assay [25]: > 30 µg/mL
IC50 in TZM-bl assay [26]: 0.012 µg/mL
IC80 in TZM-bl assay [26]: 0.043 µg/mL
IC50 in TZM-bl assay [27]: 0.008 µg/mL
IC80 in TZM-bl assay [27]: 0.016 µg/mL
IC50 in TZM-bl assay [28]: > 30 µg/mL
IC80 in TZM-bl assay [28]: > 30 µg/mL
IC50 in TZM-bl assay [29]: 0.638 µg/mL
IC80 in TZM-bl assay [29]: 2.89 µg/mL
IC50 in TZM-bl assay [30]: > 30 µg/mL
IC80 in TZM-bl assay [30]: > 30 µg/mL
IC50 in TZM-bl assay [31]: > 30 µg/mL
IC80 in TZM-bl assay [31]: > 30 µg/mL
IC50 in TZM-bl assay [32]: > 30 µg/mL
IC80 in TZM-bl assay [32]: > 30 µg/mL
IC50 in TZM-bl assay [33]: 1.32 µg/mL
IC80 in TZM-bl assay [33]: 7.47 µg/mL
IC50 in TZM-bl assay [34]: 2.85 µg/mL
IC80 in TZM-bl assay [34]: 12.9 µg/mL
IC50 in TZM-bl assay [35]: > 30 µg/mL
IC80 in TZM-bl assay [35]: > 30 µg/mL
IC50 in TZM-bl assay [36]: > 30 µg/mL
IC80 in TZM-bl assay [36]: > 30 µg/mL

354BG8 (antibody)
IC50 in TZM-bl assay [37]: 0.061 µg/mL
IC80 in TZM-bl assay [37]: 0.263 µg/mL
IC50 in TZM-bl assay (JR-CSF N362A (HIV-1)): 0.008 µg/mL
